Target: β-arrestin2 (UniProt P32121)
Experiment: BRET, MOR-Nluc and β-arrestin2-Venus
Details: for other: Emax, vehicle-subtracted BRET ratio: reference: vehicle

In the case of “mu-opioid receptor (MOR, mMOR) (from UniProt P42866) morphine”, the percent of reference (reference: DAMGO, sites T376,T379) is reported as “weaker; reference 100”.

Substance “mu-opioid receptor (MOR, mMOR) (from UniProt P42866) morphine, 10 min” has an other: Emax, vehicle-subtracted BRET ratio (sites S375) of 0.008 BRET ratio.

“mu-opioid receptor (MOR, mMOR) (from UniProt P42866) DAMGO, 10 min” gave an other: Emax, vehicle-subtracted BRET ratio (sites T370,S375,T376,T379) of 0.07 BRET ratio.
